According to PMC3919604, “Single-molecule characterization of Fen1 and Fen1/PCNA complexes acting on flap substrates” (Nucleic Acids Research, 2013):
Positions count from the first letter of the chain named. Each block holds one molecule with its values, some of them ahead of it.

How the values were obtained:
[1] = system: Fen1 (flap endonuclease 1) (Sulfolobus solfataricus); experiment: smFRET; conditions: 10 mM Ca2+, no PCNA; 10 mM Ca2+ (prevents cleavage), 20 C / room temperature; binding buffer, salt and pH not in held text (hybridization buffer 20 mM Tris-HCl pH 7.8, 25 mM NaCl)
[2] = system: Fen1 (flap endonuclease 1);PCNA heterotrimer (PCNA1/PCNA2/PCNA3) (Sulfolobus solfataricus;Sulfolobus solfataricus); experiment: smFRET; conditions: Fen1 titrated with 2 uM PCNA, 10 mM Ca2+; 10 mM Ca2+ (prevents cleavage), 20 C / room temperature; binding buffer, salt and pH not in held text (hybridization buffer 20 mM Tris-HCl pH 7.8, 25 mM NaCl)
[3] = target: Fen1 (Saccharolobus solfataricus) (UniProt Q980U8); conditions: cited from earlier work
[4] = system: Fen1 (flap endonuclease 1) (Sulfolobus solfataricus); experiment: FRET titration; conditions: 10 mM Ca2+, no PCNA; 10 mM Ca2+ (prevents cleavage), 20 C / room temperature; binding buffer, salt and pH not in held text (hybridization buffer 20 mM Tris-HCl pH 7.8, 25 mM NaCl)
[5] = system: Fen1 (flap endonuclease 1);PCNA heterotrimer (PCNA1/PCNA2/PCNA3) (Sulfolobus solfataricus;Sulfolobus solfataricus); experiment: FRET titration; conditions: Fen1 titrated with 2 uM PCNA, 10 mM Ca2+; 10 mM Ca2+ (prevents cleavage), 20 C / room temperature; binding buffer, salt and pH not in held text (hybridization buffer 20 mM Tris-HCl pH 7.8, 25 mM NaCl)
[6] = system: Fen1 (flap endonuclease 1);PCNA heterotrimer (PCNA1/PCNA2/PCNA3) (Sulfolobus solfataricus;Sulfolobus solfataricus); experiment: PIFE (Cy3); conditions: PCNA titrated with 5 uM Fen1, 10 mM Ca2+; 10 mM Ca2+ (prevents cleavage), 20 C / room temperature; binding buffer, salt and pH not in held text (hybridization buffer 20 mM Tris-HCl pH 7.8, 25 mM NaCl)
[7] = system: Fen1 (flap endonuclease 1);PCNA12 heterodimer (PCNA1/PCNA2) (Sulfolobus solfataricus;Sulfolobus solfataricus); experiment: PIFE (Cy3); conditions: PCNA12 titrated with 5 uM Fen1, 10 mM Ca2+; 10 mM Ca2+ (prevents cleavage), 20 C / room temperature; binding buffer, salt and pH not in held text (hybridization buffer 20 mM Tris-HCl pH 7.8, 25 mM NaCl)
[8] = system: Fen1 (flap endonuclease 1);PCNA-Cy5 heterotrimer (Sulfolobus solfataricus;Sulfolobus solfataricus); experiment: intermolecular FRET; conditions: PCNA-Cy5 titrated with 5 uM Fen1; substrate of the Kd fit not explicitly stated; 10 mM Ca2+ (prevents cleavage), 20 C / room temperature; binding buffer, salt and pH not in held text (hybridization buffer 20 mM Tris-HCl pH 7.8, 25 mM NaCl)
[9] = system: Fen1 (flap endonuclease 1) (Sulfolobus solfataricus); experiment: ensemble FRET; conditions: 10 mM Ca2+, no PCNA, 20 C; 10 mM Ca2+ (prevents cleavage), 20 C / room temperature; binding buffer, salt and pH not in held text (hybridization buffer 20 mM Tris-HCl pH 7.8, 25 mM NaCl)
[10] = system: Fen1 (flap endonuclease 1);PCNA heterotrimer (PCNA1/PCNA2/PCNA3) (Sulfolobus solfataricus;Sulfolobus solfataricus); experiment: ensemble FRET; conditions: Fen1 titrated with 2 uM PCNA, 10 mM Ca2+, 20 C; 10 mM Ca2+ (prevents cleavage), 20 C / room temperature; binding buffer, salt and pH not in held text (hybridization buffer 20 mM Tris-HCl pH 7.8, 25 mM NaCl)
[11] = target: T1, Cy5 acceptor-labelled Sulfolobus solfataricus PCNA heterotrimer (PCNA1 N131C-Cy5, PCNA2, PCNA3) (Sulfolobus solfataricus, UniProt P57766 1-249; Q97Z84 1-245; P57765 1-244, N131C, Cy5-maleimide on the single cysteine of N131C); experiment: FRET or BRET; ensemble inter-molecular FRET between Cy3-labelled double-flap DNA and Cy5-labelled PCNA; PCNA-Cy5 titrated, DNA pre-equilibrated with 5 uM Fen1; conditions: both partners purified
T1 construct: PCNA1 subunit, Sulfolobus solfataricus, with the point mutation N131C; PCNA2 subunit, Sulfolobus solfataricus, unlabelled; PCNA3 subunit, Sulfolobus solfataricus, unlabelled; Labelling yield about 80%; also called PCNA-Cy5; acceptor-labelled PCNA; copies: + +
T1 sequence (looked up) 1: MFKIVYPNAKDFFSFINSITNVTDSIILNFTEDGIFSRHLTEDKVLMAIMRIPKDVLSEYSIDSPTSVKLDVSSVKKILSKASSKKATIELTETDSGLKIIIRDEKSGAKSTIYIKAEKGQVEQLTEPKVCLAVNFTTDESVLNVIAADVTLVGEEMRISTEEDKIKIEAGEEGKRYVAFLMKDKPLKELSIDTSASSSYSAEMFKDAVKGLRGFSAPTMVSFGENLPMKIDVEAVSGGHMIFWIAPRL
T1 sequence (looked up) 2: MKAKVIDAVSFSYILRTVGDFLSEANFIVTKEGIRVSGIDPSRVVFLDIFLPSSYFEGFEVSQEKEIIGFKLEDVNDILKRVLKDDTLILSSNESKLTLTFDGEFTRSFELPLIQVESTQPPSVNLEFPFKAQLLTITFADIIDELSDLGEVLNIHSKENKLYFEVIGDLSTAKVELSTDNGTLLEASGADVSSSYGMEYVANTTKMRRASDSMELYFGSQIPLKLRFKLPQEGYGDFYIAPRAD
T1 sequence (looked up) 3: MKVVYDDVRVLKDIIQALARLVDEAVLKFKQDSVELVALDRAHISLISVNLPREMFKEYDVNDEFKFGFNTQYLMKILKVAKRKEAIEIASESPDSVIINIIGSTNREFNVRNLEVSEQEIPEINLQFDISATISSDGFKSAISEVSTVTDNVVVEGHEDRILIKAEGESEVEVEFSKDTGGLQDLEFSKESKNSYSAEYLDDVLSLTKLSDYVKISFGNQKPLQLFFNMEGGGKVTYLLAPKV

[12] = target: T2, Sulfolobus solfataricus PCNA heterotrimer (PCNA1, PCNA2, PCNA3) (Sulfolobus solfataricus, UniProt P57766 1-249; Q97Z84 1-245; P57765 1-244); experiment: other fluorescence titration; protein-induced fluorescence enhancement (PIFE) of Cy3 on the 3F-duplex of a double-flap DNA; PCNA or PCNA12 titrated into DNA pre-incubated with 5 uM Fen1, 10 mM Ca2+; 30 mM HEPES pH 7.6, 40 mM KCl, 5% glycerol, 0.1 mg/ml BSA, 20 C; conditions: both partners purified
T2 construct: PCNA1 subunit of the heterotrimeric PCNA, Sulfolobus solfataricus; PCNA2 subunit of the heterotrimeric PCNA, Sulfolobus solfataricus; PCNA3 subunit of the heterotrimeric PCNA, Sulfolobus solfataricus; also called heterotrimeric PCNA; sliding clamp; copies: + +
T2 sequence (looked up) 1: T1 sequence (looked up) 1 with C131N
T2 sequence (looked up) 2: T1 sequence (looked up) 2
T2 sequence (looked up) 3: T1 sequence (looked up) 3

[13] = target: T3, Sulfolobus solfataricus PCNA1-PCNA2 heterodimer (PCNA12) (Sulfolobus solfataricus, UniProt P57766 1-249; Q97Z84 1-245); experiment: as above; conditions: both partners purified
T3 construct: PCNA1 subunit, Sulfolobus solfataricus; PCNA2 subunit, Sulfolobus solfataricus; also called PCNA12 complex
T3 sequence (looked up) 1: T1 sequence (looked up) 1 with C131N
T3 sequence (looked up) 2: T1 sequence (looked up) 2

Molecule: Flap-23 double flap, single-molecule, Cy3/Cy5, biotin
- Kd [1]: 23 nM
- Kd [2]: 1.6 nM

Molecule: PCNA (from UniProt P57766)
- Kd [3]: 210 nM

Molecule: 5'-flap substrate lacking the 3' extrahelical nucleotide
- Kd [4]: > 10000 nM
- Kd [5]: 700 nM

Molecule: Double flap, Cy3 in 3F-duplex
- Kd [6]: 160 nM
- Kd [7]: 360 nM
- Kd [8]: 117 nM

Molecule: Flap-12/23/13 double flap (global fit of three labelled versions)
- Kd [9]: 14 nM
- Kd [10]: 3 nM

- Kd [11]: 117 ± 34 nM
- Kd [12]: 160 ± 14 nM
- Kd [13]: 360 ± 30 nM
B1: Sulfolobus solfataricus Flap endonuclease 1 (Fen1) (enzyme, UniProt Q980U8 1-349, looked up)
chain: MDLADLVKDVKRELSFSELKGKRVSIDGYNALYQFLAAIRQPDGTPLMDSQGRVTSHLSGLFYRTINILEEGVIPIYVFDGKPPEQKSEELERRRKAKEEAERKLERAKSEGKIEELRKYSQAILRLSNIMVEESKKLLRAMGIPIVQAPSEGEAEAAYLNKLGLSWAAASQDYDAILFGAKRLVRNLTITGKRKLPNKDVYVEIKPELIETEILLKKLGITREQLIDIGILIGTDYNPDGIRGIGPERALKIIKKYGKIEKAMEYGEISKKDINFNIDEIRGLFLNPQVVKPEEALDLNEPNGEDIINILVYEHNFSEERVKNGIERLTKAIKEAKGASRQTGLDRWF
notes: Flap endonuclease 1 (Fen1), Sulfolobus solfataricus
